Reference: the DeepSol protein solubility set

Assay: soluble on expression in E. coli; label from the status in PepcDB or PDB records

Row | Sequence | soluble on expression in E. coli
1 | MTASLMNTGKKNPFRDTQQGEYGNGDRNDWVMQASCRNGDPDALFVRGAEQRRAAAICRQCPVMIQCRADALDNKVEFGVWGGLTERQRRAILRKNPHVDSWEQFFAQGGELLGM | not soluble
2 | MTAYINQEAAAKLDEVFPLAELALKAYGPEFQGELSLLTHSENSTYLVNAFSGQRFVMRVHRAHYHSRTAIESELAWLDALADEGMEVPKAIAGRDGAKVQTIGDGHAERREVVLFHWINGYQPDQSQQESLIQGFRRLGEITAGLHIHARQWQRPHWFERRLMVGAHAAWGNWQKAPYLDKPGAAIIGKALDKVRMELNEYGNAADLFGLIHADLRLTNLLVEEEITRIIDFDDCGFSWFMHDLAAAVSFIEHSPCLNEWVGSWVNGYSTVLPLSAADHAVIPALITQRRVQLLAWTGTHQGAPQADGLGNIWVVQTIELCEKYLANTLLDCKSIS | not soluble
3 | MTDGSMDIDAMLEGGLEMAKNDRSQSRQRSPARSNRSRPSRVPIQSDVD | not soluble
4 | MTDILIDNTATETVRTLIRAFPLVPVSQPPEQGSYLLAEHDTVSLRLVGEKSSVIVDFASGAAQYRRTKGGGELIAKAVNHTAHPTVWDATAGLGRDSFVLASLGLAVTAFEQHPAVACLLSDGIRRALLNPETQNTAAHINLHFGNAAEQMPALVQTQGKPDIVYLDPMYPERRKSAAVKKEMTYFHRLVGEAQDEAALLHTARQTAKKRVVVKRPRLGEHLAGQDPAYQYTGKSTRFDVYLPYGTDKGLEHHHHHH | soluble
5 | MTDKVIATHNGNFHADDVFSIAALKNIFPSFKLIRTRDLEVIGKADIVIDVGGEYDADAGRFDHHQRGGAGERENGIPYSSFGLIWQKYGLAICQGNQEVANSVDAGLVSTIDAIDCGHVEGVAQGISLSQTISMFNPTWQEDSHFDTCFDEAVDFASRVLTRFIASASGGINAKDIVAKAIDNAEDSRVIVLEKYTPWKRTVHALSEEALYMVYPSPSGQWRIQTVPVEPGSFEDRKPLPKQWAGLSDDALKEVTGIDDAMFCHNGLFIAGAESFESTMKMASIALQALEHHHHHH | soluble
6 | MTDLEHAVESNRRAWDASADSHLRGGGWQELSLAVQETGFSCLDETLAGVLRNLDLAGKAAVQVGCNNGREVLSLYAFGVARAVGIDQSAAFLAQARQLAERSPHQPRFVEANAYELPAELNGQFDLLLITIGVLNWMPDIARFFASVSGLLKPGGQLAIYETHPFLEMLEPESERPFELRNDYFTDTPHVSREAIVYEGSGSDTGIASYWYVHPLGDILGGLLGAGLRLSHFKEYPHSNREELYDLYEDGPLAIPMCYTLVAVKA | soluble
7 | MTDNNTALKKAGLKVTLPRLKILEVLQEPDNHHVSAEDLYKRLIDMGEEIGLATVYRVLNQFDDAGIVTRHNFEGGKSVFELTQQHHHDHLICLDCGKVIEFSDDSIEARQREIAAKHGIRLTNHSLYLYGHCAEGDCREDEHAHEGK | soluble
8 | MTDSQSTQMGRGRHAKRNKSTASVGSKKNRTQSTASGKFQPSDGFTTFIVAVSRLGKQGQEFTWHDLRKVYHKETQRQLTAEELNAIFSSKNLTKREIFELPKVKRFMTSMDGSMMCRFRLIADPQEVYDDDLPPLMSTSVETDVITEDTSSDHSQAVSPSSGNPIAISTDCDDKAAGPTSDLSKSDNSPSQRSLAQQSSMTDDEGWVSGKDVRSENSSPVEDKDEVDGSKMEMEDDVFEEDQRIAAESDQVDSAMVADVIIVEEAKVEKLFKAQEIVAPIVLTESIDAAFEAVIQSVSHADATLSMTQNASEEAKVHATPPLPAERKTMVSAELANGKPIKHLIEKFDAGVNFAEHKPKSIYAQVLEEIGGSAPRVDEVFSASKKEEHAETEVTNVIFRSTSTHSSIIANGKEQLAEFVAEQEARQKVTTPNPVKEETENAFCAKEQSSMSSLDREYFASKTKLNEDLFAELGVKDTDGFQLKTVDSNGSGPGSSEIITVIETPLKDDHRKRADSVESDADVPYSLCSEDEAEPMTMIDKSMKVSQSAEQLSPVKEEQKAKTVVVNVELDGNRADPTIKDRIAALQAIVSKQHVPIAKVDSVDDDVRILSRTEELQHMALEAKPSPQALGALRRRHVRFMRGCCVVQ | soluble
9 | MTEFELPPKYITAANDLRSDTFTTPTAEMMEAALEASIGDAVYGEDVDTVRLEQTVARMAGKEAGLFCVSGTLSNQIAIRTHLMQPPYSILCDYRAHVYTHEAAGLAILSQAMVVPVVPSNGDYLTLEDIKSHYVPDDGDIHGAPTRLISLENTLHGIVYPLEELVRIKAWCMENGLKLHCDGARIWNAAAQSGVPLKQYGEIFDSISICLSKSMGAPIGSVLVGNLKFVKKATHFRKQQGGGIRQSGMMARIALVNINNDWKSQLLYSHSLAHELAEYCEAKGIPLESPADTNFVFINLKAARMDPDVLVKKGLKYNVKLMGGRVSFHYQVTRDTLEKVKLAISEAFDYAKEHPFDCNGPTQIYRSESTEVDVDGNAIREIKTYKY | soluble
10 | MTEIVERMKKKNIVKPIVYGNTATPFGYKRDSDQHTHQWTVFLKPYLIEDPTKWIRKVQFKLHESYAVPYRVVEKPPYEVTETGWGEFEIQIRIYFVDPNEKPITAFHYLRLFQPTIELPSGNQIVCMEFYDEIIFQEPTVQMYKALQASDGKRPDKQAFLNDIEQVKTRTRELGEVAQKEIAAEIEDLRESLKDAHKMIVKYNTELAEQE | not soluble
11 | MTEKQFKLTVQDNTNIEVKVNFTDVDSKGIIHIFHGMAEHMERYDKLAHALSKHGFDVIRHNHRGHGINIDESTRGHYDDMKRVIGDAFEVAQTVRGNVDKPYIIIGHSMGSVIARLFVETYPQYVDGLILSGTGMYSLWKGLPTVKVLQLITKIYGAEKRVEWVNQLVSNSFNKKIRPLRTQSDWISSNPIEVDNFIKDPYSGFNVSNQLLYQTAYYMLHTSQLKNMKMLNHAMPILLVSGYDDPLGDYGKGILKLANIYRKAGIKNVKVNLYHHKRHEVLFEKDHDKIWEDLFKWLNQFYKK | not soluble
12 | MTENALLLLNLGSPDSTRVEDVRRYLDQFLMDPYVVDLPWPLRRLLVSLILIKRPAESAHAYSSIWWDEGSPLIVLSRRLQEAMKPHWPHGPVELAMRYGQPAIEKVLLDLARRGIRRVTLAPLYPQFADSTTTTAEQEVRRVIAAHRLGLEVSTLPPFYDQPVYLDALVESVRPYLQQPHDHLLLSFHGLPERHIRKLVKDPAHDLLAENSRNVSPEALALCYRSQCLRTAEAFAERAGLEQGRWSVSFQSRLGRAKWIEPYTDAKLDELVQRGVKRLLVMCPAFVADCIETLEEIGMRGREQFISAGGEDLVLIPCLNDHPAWVGALAEMSGRLARPL | not soluble
13 | MTENQNGKVDPVAIRELISQGIPMKRKESEIKRSQSEEQCVESECPNDEPMSKDFSRVSRRERRKSDKGDYESLFICRNTLKNRKTIYIAKELQDTLAEIVMSMRNRDMTIGIYVENIILHHLETYKDEINRLAEMKFRKLL | not soluble
14 | MTEPVHPIADLTDSLLGWASQTELELAQRLAGGGLVIAAGLSDDELERIERLYGIFLTRQLLAGADFAALIGVSPALTLTTLVARARRVVEIDDFVSEFLGGLGLATDESSVIDIDEATAAIMGAIPQSLARFELLGAQEATDALSAIVSLCTQAGIVNNEVPALLEYLDAVNAEGTVSSEDLVAAIAQQENLPLLATALQIAPAAITELIDGVAAVRQFAVDHHDSWFDRSREHLTPLLPRPIEFSVVSELRERPVGTVDREASVGVASREMRPRILFDADRSKVYLRLPEQRLPIADDGTRGEITWRVSIEGTTKIYHTGSPWGDTSGFAESLDVHIERPVRELTVQDETNEITWTVPVLAHDDPALVFSSRGTNVTDKVALHHQSLIVVTPQDVTLTDVVSGDDIVADSETAVEGWDKWVARYLDVSHVTSLSAVEPGKNANMETLRSIDPRQRVRFLAPSEPVDFLKTTGGLPVHSESLIAEFPPTPSGRTE | not soluble
15 | MTGEGYKQAIVVRRDLGMGRGKAAAQAAHASCEAVFLILESGRPEWRRWLEMWRLQGQAKVVLRVESLAELQEVYSKAVEEGLPASFVRDAGKTQLEPGTPTAAAVGPAPSRLVDRITGGLKLF | not soluble
16 | MTGKILVIGSTGTIGTPLVKALVARGESVKAASRSGKPTNGAEGVRFDYTDHATFADAFDGVDRLFLMLAGGRLDTIDALTPVVEEAARRKVKIVFLSVLGVDADDSIPYRQIELKIIASGTPYVILRPNWFADNFHSYWKAGIEHGQIAVPGGEGKSSFIDVRDIADSAAAALTSDAFNGKAFNLTGPQAFGYAEAAALISQAIGKPVSYSAVSDDVFIGILTGAGVPQDYASFLASIFYPVREGWTAVVTGDAETLTGHAPRSLETYIADNLDRLKG | not soluble
17 | MTGLLDGKRILVSGIITDSSIAFHIARVAQEQGAQLVLTGFDRLRLIQRITDRLPAKAPLLELDVQNEEHLASLAGRVTEAIGAGNKLDGVVHSIGFMPQTGMGINPFFDAPYADVSKGIHISAYSYASMAKALLPIMNPGGSIVGMDFDPSRAMPAYNWMTVAKSALESVNRFVAREAGKYGVRSNLVAAGPIRTLAMSAIVGGALGEEAGAQIQLLEEGWDQRAPIGWNMKDATPVAKTVCALLSDWLPATTGDIIYADGGAHTQLL | soluble
18 | MTGPEPVPAGPPPDPTPPRRAGSVWAHVGQHFTEEAFDIVVIGAGRMGAACAFYLRQLAPGRSLLLVEEGGLPNEEGATILAPGVWTAQDIPAGQEAQAEWTREQLLGALGSGKTLEVEDRPLLHLLPAGEGSGLTPTLDALADFPEALALLDPARLPVARVDPRALTYRPGSLALLAAQQAIGQGAGLLLNTRAELVPGGVRLHRLTVTNTHQIVVHETRQIRAGVIIVAAGAAGPALVEQGLGLHTRHGRAYRQFPRLDLLSGAQTPVLRASGLTLRPQNGGYTLVPAIHHRDPHGYHPAGGSLTGVPTGLRRELLEDLVGLMDAVPALAGEGLELGRSSADVPGAWLALPGGRPDAPPQAEELAPGLHLLLGGPLADTLGLAAAHELAQRVSASLEHHHHHH | soluble
19 | MTGRESNRIKDAEKKRVLDSTARQRRARKALEALEQDNYHDDPHADLVMSKKLPKFQDSLKTGKEKKGKRKGAEYFLVKYRKNFQQLLEEDKDKQPNYESAAAPAPQKPLRHFCAVCGNFSLYSCTACGTRYCCVRCLQTHQDTRCLKWTALEHHHHHH | not soluble
20 | MTGRPEDSVIDIYQRHGAAWAKLRGDRLAEGGWLDRFCELLPATASVLDIGCGSGLPIARELVRRGFDVTGVDGASTMLALFRRNLPGTPAHLADMRELALGRRFDGLLAWDSFFHLSPADQRAMFRRFQAHAAAGAALMFTSGPAEGSAIGELAGDRLYHGSLGSDDYRALLDASGFEGVDHIVEDPTCGYRTIWLARQRRLEHHHHHH | not soluble
21 | MTGSDISHILKEGELEKRSDNLLQFWKRKTCVLTTDSLNIYTDQQKKNKSKELKLQSIKKVDCVEHTGKFVYFTIVTTDNKEIDFRCSDEKNCWNAVIAIALVNFQNRKAIQGFKTQKESENTSLGQQERCMARAP | not soluble
22 | MTHEYQDLITIFNDTFLEQFNTTLELGGDEPIYLPADDEHPHHRIIFARGFYASALHEIAHWCVAGPERRLMEDFGYWYEPDGRTEAVQAEFEKVEIRPQAYEWILATSAGFPFTVSCDNLHGDFEPDRLGFMQKVHKEVLGILEAGLPPRVKMLSDALRAFYQTKPLEASDFSVK | not soluble
23 | MTHIAFGHYLHSKRWYTVQVLSKSEDAMSTQLDPTQLAIEFLRRDQSNLSPAQYLKRLKQLELEFADLLTLSSAELKEEIYFAWRLGVH | not soluble
